Earlier results, collected in PMC4456024.

Biological target: cTnI147-163 (Homo sapiens)
Test: NMR titration

Kd: 150 µM
Substance: cTnC (cNTnC) 1-89 (from UniProt P63316)
